The results in this text go back to US20220267436A1 (published 2022).

Assay [1] deals with T1, human LAG-3 (human, UniProt P18627 23-525).
T1 chain: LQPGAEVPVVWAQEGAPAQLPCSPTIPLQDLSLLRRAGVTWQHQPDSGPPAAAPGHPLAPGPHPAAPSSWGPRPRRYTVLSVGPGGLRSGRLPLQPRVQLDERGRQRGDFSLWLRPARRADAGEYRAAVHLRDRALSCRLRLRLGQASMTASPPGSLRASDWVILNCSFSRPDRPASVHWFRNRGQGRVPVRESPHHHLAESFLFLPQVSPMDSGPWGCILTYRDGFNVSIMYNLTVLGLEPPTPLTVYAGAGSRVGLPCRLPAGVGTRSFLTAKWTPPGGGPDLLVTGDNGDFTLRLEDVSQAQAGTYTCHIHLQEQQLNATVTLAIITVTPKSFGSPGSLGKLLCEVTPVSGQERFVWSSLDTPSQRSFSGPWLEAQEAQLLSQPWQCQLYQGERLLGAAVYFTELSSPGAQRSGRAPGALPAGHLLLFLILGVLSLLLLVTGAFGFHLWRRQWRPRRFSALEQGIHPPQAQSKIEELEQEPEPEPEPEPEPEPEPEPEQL
In words: flow cytometry, CHO-K1 cells expressing human LAG-3; FIG. 2.

Assay [2] addresses human CD47 (human, UniProt Q08722 19-323). In words: flow.
Assay [3] deals with T1, human LAG-3. Nature of the assay: flow cytometry, CHO-K1 cells expressing human LAG-3; FIG. 1. (Flow cytometry measures light scatter and fluorescence of single cells or particles in a stream.)

Chain of human CD47 (Q08722 19-323): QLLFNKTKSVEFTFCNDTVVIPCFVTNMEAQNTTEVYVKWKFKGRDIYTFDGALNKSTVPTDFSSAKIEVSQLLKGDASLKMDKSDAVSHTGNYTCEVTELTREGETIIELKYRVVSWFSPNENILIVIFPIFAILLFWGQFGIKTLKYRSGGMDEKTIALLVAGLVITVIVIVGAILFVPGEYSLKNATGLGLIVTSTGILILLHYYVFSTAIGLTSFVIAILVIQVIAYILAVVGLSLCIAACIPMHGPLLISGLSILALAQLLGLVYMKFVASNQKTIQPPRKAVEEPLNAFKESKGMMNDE

B1: bispecific antibody LAG3-G15-LN (bispecific antibody)
heavy: not shown
light: EVQLVESGGGLVQPGGSLRLSCAASGYTVSSYCMGWFRQAPGKGREGVSAIDSDGSVSYADSVKGRFTISKDNSKNTLYLQMNSLRAEDTAVYFCAADLCWVDQDQGEYNTWGQGTLVTVSSGGGGSGGGGSGGGGSEIVLTQSPATLSLSPGERATLSCRASENVGTYISWYQQKPGQAPRLLIYGASNRYTGIPARFSGSGSGTDFTLTISSLEPEDFAVYYCGESYGHLYTFGGGTKVEIKRTVAAPSVFIFPPSDEQLKSGTASVVCLLNNFYPREAKVQWKVDNALQSGNSQESVTEQDSKDSTYSLSSTLTLSKADYEKHKVYACEVTHQGLSSPVTKSFNRGEC
As to B1, the concentration giving a half-maximal response (EC50) – broadly, the concentration giving half of the maximal effect – in assay [1] turned out to be 0.535 nM.

B2: bispecific antibody LAG3-E-LC (bispecific antibody)
heavy: not shown
light: EIVLTQSPATLSLSPGERATLSCRASENVGTYISWYQQKPGQAPRLLIYGASNRYTGIPARFSGSGSGTDFTLTISSLEPEDFAVYYCGESYGHLYTFGGGTKVEIKRTVAAPSVFIFPPSDEQLKSGTASVVCLLNNFYPREAKVQWKVDNALQSGNSQESVTEQDSKDSTYSLSSTLTLSKADYEKHKVYACEVTHQGLSSPVTKSFNRGECEPKSSDKTHTSPPSPEVQLVESGGGLVQPGGSLRLSCAASGYTVSSYCMGWFRQAPGKGREGVSAIDSDGSVSYADSVKGRFTISKDNSKNTLYLQMNSLRAEDTAVYFCAADLCWVDQDQGEYNTWGQGTLVTVSS
B2 showed a 50% effective concentration (EC50) in assay [1] of 0.552 nM.

B3: anti-CD47 monoclonal antibody (mAb) (antibody, V domains shown)
VH: EVQLVQSGAEVKKPGSSVKVSCKASGYSFTHHWIHWVRQAPGQGLEWMGMIDASDSETRLSQKFKDRVTITADKSTSTAYMELSSLRSEDTAVYYCARLGRYYFDYWGQGTTVTVSS
VL: EIVLTQSPATLSLSPGERATLSCRASENVGTYISWYQQKPGQAPRLLIYGASNRYTGIPARFSGSGSGTDFTLTISSLEPEDFAVYYCGESYGHLYTFGGGTKVEIKR
Turning to B3, in assay [2], the EC50 came out at 1.01 nM.

B4: bispecific antibody LAG3-G9-LN (bispecific antibody)
heavy: not shown
light: EVQLVESGGGLVQPGGSLRLSCAASGYTVSSYCMGWFRQAPGKGREGVSAIDSDGSVSYADSVKGRFTISKDNSKNTLYLQMNSLRAEDTAVYFCAADLCWVDQDQGEYNTWGQGTLVTVSSGGGGSGGGSEIVLTQSPATLSLSPGERATLSCRASENVGTYISWYQQKPGQAPRLLIYGASNRYTGIPARFSGSGSGTDFTLTISSLEPEDFAVYYCGESYGHLYTFGGGTKVEIKRTVAAPSVFIFPPSDEQLKSGTASVVCLLNNFYPREAKVQWKVDNALQSGNSQESVTEQDSKDSTYSLSSTLTLSKADYEKHKVYACEVTHQGLSSPVTKSFNRGEC
In turn, B4 registered an EC50 in assay [1] of 0.322 nM.

B5: bispecific antibody LAG3-E-HC (bispecific antibody)
heavy: not shown
light: EIVLTQSPATLSLSPGERATLSCRASENVGTYISWYQQKPGQAPRLLIYGASNRYTGIPARFSGSGSGTDFTLTISSLEPEDFAVYYCGESYGHLYTFGGGTKVEIKRTVAAPSVFIFPPSDEQLKSGTASVVCLLNNFYPREAKVQWKVDNALQSGNSQESVTEQDSKDSTYSLSSTLTLSKADYEKHKVYACEVTHQGLSSPVTKSFNRGEC
With B5, the concentration for a half-maximal effect (EC50) in assay [2] was determined as 1.17 nM; in assay [3] it was 0.8 nM.

B6: bispecific antibody LAG3-G15-HN (bispecific antibody)
heavy: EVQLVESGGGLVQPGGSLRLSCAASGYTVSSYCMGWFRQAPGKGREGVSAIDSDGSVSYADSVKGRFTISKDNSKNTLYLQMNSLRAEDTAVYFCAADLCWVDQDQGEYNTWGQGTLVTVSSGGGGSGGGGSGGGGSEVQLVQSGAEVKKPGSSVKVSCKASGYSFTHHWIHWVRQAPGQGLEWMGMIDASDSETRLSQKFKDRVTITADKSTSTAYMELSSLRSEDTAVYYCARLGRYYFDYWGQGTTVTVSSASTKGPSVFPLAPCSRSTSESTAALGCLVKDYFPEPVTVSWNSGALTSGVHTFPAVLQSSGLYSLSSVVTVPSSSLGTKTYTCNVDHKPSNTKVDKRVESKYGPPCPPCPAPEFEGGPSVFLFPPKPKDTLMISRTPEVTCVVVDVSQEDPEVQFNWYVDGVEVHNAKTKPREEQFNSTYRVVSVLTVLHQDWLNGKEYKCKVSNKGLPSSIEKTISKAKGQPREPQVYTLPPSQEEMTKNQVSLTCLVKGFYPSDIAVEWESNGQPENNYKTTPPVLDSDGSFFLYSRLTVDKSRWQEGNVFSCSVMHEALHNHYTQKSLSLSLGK
light: EIVLTQSPATLSLSPGERATLSCRASENVGTYISWYQQKPGQAPRLLIYGASNRYTGIPARFSGSGSGTDFTLTISSLEPEDFAVYYCGESYGHLYTFGGGTKVEIKRTVAAPSVFIFPPSDEQLKSGTASVVCLLNNFYPREAKVQWKVDNALQSGNSQESVTEQDSKDSTYSLSSTLTLSKADYEKHKVYACEVTHQGLSSPVTKSFNRGEC
In the case of B6, the EC50 in assay [2] was determined as 3.85 nM; in assay [3], 0.57 nM.

B7: bispecific antibody LAG3-G9-HC (bispecific antibody)
heavy: not shown
light: EIVLTQSPATLSLSPGERATLSCRASENVGTYISWYQQKPGQAPRLLIYGASNRYTGIPARFSGSGSGTDFTLTISSLEPEDFAVYYCGESYGHLYTFGGGTKVEIKRTVAAPSVFIFPPSDEQLKSGTASVVCLLNNFYPREAKVQWKVDNALQSGNSQESVTEQDSKDSTYSLSSTLTLSKADYEKHKVYACEVTHQGLSSPVTKSFNRGEC
For the molecule B7, the EC50 came out at 0.865 nM in assay [2] and 0.602 nM in assay [3].

B8: bispecific antibody LAG3-G15-HC (bispecific antibody)
heavy: not shown
light: EIVLTQSPATLSLSPGERATLSCRASENVGTYISWYQQKPGQAPRLLIYGASNRYTGIPARFSGSGSGTDFTLTISSLEPEDFAVYYCGESYGHLYTFGGGTKVEIKRTVAAPSVFIFPPSDEQLKSGTASVVCLLNNFYPREAKVQWKVDNALQSGNSQESVTEQDSKDSTYSLSSTLTLSKADYEKHKVYACEVTHQGLSSPVTKSFNRGEC
Consider B8, for which the EC50 was found to be 0.911 nM in assay [2] and 0.672 nM in assay [3].

B9: bispecific antibody LAG3-E-HN (bispecific antibody)
heavy: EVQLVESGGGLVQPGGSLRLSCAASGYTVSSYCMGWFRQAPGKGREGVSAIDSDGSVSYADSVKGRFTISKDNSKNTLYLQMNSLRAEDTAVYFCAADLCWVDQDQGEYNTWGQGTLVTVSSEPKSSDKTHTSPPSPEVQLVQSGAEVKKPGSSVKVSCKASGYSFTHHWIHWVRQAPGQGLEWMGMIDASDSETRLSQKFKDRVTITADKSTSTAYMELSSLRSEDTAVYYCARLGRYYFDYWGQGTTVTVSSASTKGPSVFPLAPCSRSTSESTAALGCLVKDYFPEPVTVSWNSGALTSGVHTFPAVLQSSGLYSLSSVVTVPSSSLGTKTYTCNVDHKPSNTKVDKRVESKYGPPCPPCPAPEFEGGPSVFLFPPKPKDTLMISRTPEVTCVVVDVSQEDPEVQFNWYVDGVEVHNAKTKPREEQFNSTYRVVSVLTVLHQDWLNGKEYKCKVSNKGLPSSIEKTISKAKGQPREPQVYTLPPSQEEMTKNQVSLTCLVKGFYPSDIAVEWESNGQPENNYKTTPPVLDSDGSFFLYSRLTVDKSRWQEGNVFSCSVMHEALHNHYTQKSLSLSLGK
light: EIVLTQSPATLSLSPGERATLSCRASENVGTYISWYQQKPGQAPRLLIYGASNRYTGIPARFSGSGSGTDFTLTISSLEPEDFAVYYCGESYGHLYTFGGGTKVEIKRTVAAPSVFIFPPSDEQLKSGTASVVCLLNNFYPREAKVQWKVDNALQSGNSQESVTEQDSKDSTYSLSSTLTLSKADYEKHKVYACEVTHQGLSSPVTKSFNRGEC
In the case of B9, the half-maximal effective concentration (EC50) is 4.44 nM in assay [2] and 0.526 nM in assay [3].

B10: bispecific antibody LAG3-G9-HN (bispecific antibody)
heavy: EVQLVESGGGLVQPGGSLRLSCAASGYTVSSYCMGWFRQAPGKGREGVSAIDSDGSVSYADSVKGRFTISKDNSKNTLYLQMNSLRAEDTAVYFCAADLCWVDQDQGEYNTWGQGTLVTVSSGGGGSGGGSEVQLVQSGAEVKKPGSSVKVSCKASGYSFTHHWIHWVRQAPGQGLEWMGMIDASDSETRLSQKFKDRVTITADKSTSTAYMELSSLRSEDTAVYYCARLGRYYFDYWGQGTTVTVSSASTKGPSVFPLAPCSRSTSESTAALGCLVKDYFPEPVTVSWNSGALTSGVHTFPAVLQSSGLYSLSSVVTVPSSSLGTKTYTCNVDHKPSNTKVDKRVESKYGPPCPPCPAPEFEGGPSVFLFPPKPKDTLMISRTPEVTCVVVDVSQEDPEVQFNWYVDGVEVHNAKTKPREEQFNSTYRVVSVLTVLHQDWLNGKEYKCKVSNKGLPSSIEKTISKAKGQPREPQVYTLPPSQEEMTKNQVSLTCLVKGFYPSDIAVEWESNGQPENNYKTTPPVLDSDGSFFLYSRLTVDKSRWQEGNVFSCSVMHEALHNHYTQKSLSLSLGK
light: EIVLTQSPATLSLSPGERATLSCRASENVGTYISWYQQKPGQAPRLLIYGASNRYTGIPARFSGSGSGTDFTLTISSLEPEDFAVYYCGESYGHLYTFGGGTKVEIKRTVAAPSVFIFPPSDEQLKSGTASVVCLLNNFYPREAKVQWKVDNALQSGNSQESVTEQDSKDSTYSLSSTLTLSKADYEKHKVYACEVTHQGLSSPVTKSFNRGEC
On to B10, for which the results for the EC50 in assay [2] and in assay [3] were 3.96 nM and 0.477 nM, respectively.

B11: bispecific antibody LAG3-E-LN (bispecific antibody)
heavy: not shown
light: EVQLVESGGGLVQPGGSLRLSCAASGYTVSSYCMGWFRQAPGKGREGVSAIDSDGSVSYADSVKGRFTISKDNSKNTLYLQMNSLRAEDTAVYFCAADLCWVDQDQGEYNTWGQGTLVTVSSEPKSSDKTHTSPPSPEIVLTQSPATLSLSPGERATLSCRASENVGTYISWYQQKPGQAPRLLIYGASNRYTGIPARFSGSGSGTDFTLTISSLEPEDFAVYYCGESYGHLYTFGGGTKVEIKRTVAAPSVFIFPPSDEQLKSGTASVVCLLNNFYPREAKVQWKVDNALQSGNSQESVTEQDSKDSTYSLSSTLTLSKADYEKHKVYACEVTHQGLSSPVTKSFNRGEC
B11: the midpoint of the response in assay [1], the EC50, lay at 0.448 nM.
